Reference: US20130156692A1 (INDI MOLECULAR, published 2013)
Bridges are numbered along the chain shown (N, C = ends). Primed or numbered codes have the meaning given here. Where no end group is shown, it is not given here. [ ]: non-standard residue; d: D form. Tz4″ = 1,4-disubstituted 1,2,3-triazole linker between anchor and secondary ligand; Lys(N3) = [N-]=[N+]=NCCCC[C@H](N)C(=O)O

Columns and labels:
[1] = target: T1, human VEGF165A (#ab56620; Abcam) (human, UniProt P15692-4 27-191, biotinylated (EZ-Link Sulfo-NHS-LC-Biotinylation kit) in the competitive ELISAs of Examples 8, 9 and 16; unlabelled in the direct ELISA and the pull-down); assay: direct ELISA, VEGF165 coated, biotinylated capture agent
T1 construct: Isoform VEGF165 of VEGF-A; also called rhVEGF165; biotinylated VEGF165

[2] = target: T1, human VEGF165A (#ab56620; Abcam); assay: direct ELISA: VEGF165 coated on the plate, biotinylated binder titrated, streptavidin poly-HRP, fluorescence normalised to saturation
[3] = target: T1, human VEGF165A (#ab56620; Abcam); assay: direct ELISA: VEGF165A immobilized on NUNC MaxiSorp plate, biotinylated PCC or bevacizumab (mAb or Fab) titrated, normalized to binding at saturation
[4] = target: T1, human VEGF165A (#ab56620; Abcam); assay: competitive ELISA, inhibition of biotinylated VEGF165 binding to VEGFR2-Fc; competition ELISA: blocking of biotinylated VEGF165 binding to VEGFR2-Fc; Biligand 2 tested up to 50 µM
[5] = target: T1, human VEGF165A (#ab56620; Abcam); assay: direct ELISA: VEGF165A immobilized on NUNC MaxiSorp plate, biotinylated peptide titrated, normalized to binding at saturation
[6] = target: T1, human VEGF165A (#ab56620; Abcam); assay: competitive ELISA, inhibition of biotinylated VEGF165 binding to VEGFR2-Fc; competition ELISA: blocking of biotinylated VEGF165 binding to VEGFR2-Fc; anchor tested up to 50 µM

T1 sequence (P15692 other isoform, or with tags, fused parts or gaps limits assumed): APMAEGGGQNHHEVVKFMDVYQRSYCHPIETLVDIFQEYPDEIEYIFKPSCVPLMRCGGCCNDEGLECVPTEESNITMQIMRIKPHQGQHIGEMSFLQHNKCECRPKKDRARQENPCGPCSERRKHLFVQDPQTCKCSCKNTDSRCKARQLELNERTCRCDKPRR

Row | Binder | fold improvement in affinity relative to the anchor ligand [1] [fold] | EC50 (read off the curve) [2] [nM] | EC50 (read off the curve) [3] [nM] | IC50 [4] [nM] | EC50 (read off the curve) [5] [nM] | IC50 [6] [nM]
1 | VEPNCDIHVMWEWECFERL[Tz4″][dL][dF][dR][dE][dW] (designed binder, disulfide 5-15; numbers in words are those of the source; also: N-terminal group is biotin-PEG3 or acetyl, not fixed) [Biligand 2 (X-…-Tz4-Ifrew)] | 5 | 50 | 40 | > 50000 |  | 
2 | VEPNCDIHVMWEWECFERL[Lys(N3)] (disulfide 5-15; also: N-terminal X is biotin-PEG3 or acetyl, not settled, Phage display-derived peptide; also called Biotin-PEG-anchor ligand-Az4) [anchor ligand X-VEPNCDIHVMWEWECFERL-Az4] |  | ~100 | ~100 |  | ~300 | > 50000
